The results in this text go back to PMC5480393 (Cell, 2017).

Series [1] concerns the molecule itself. The series is described as follows: crystal structure.
Series [2] deals with the molecule itself. The series is described as follows: crystal structure. This is another data set of the same source.

Like-named read-outs stand apart in the source and are kept apart here.

B1: VR3 (red abalone VERL repeat 3 without the interdomain linker) (domain or fragment)
chain: DWDVYCSQDESIPAKFISRLVTSKDQALEKTEINCSNGLVPITQEFGINMMLIQYTRNELLDSPGMCVFWGPYSVPKNDTVVLYTVTARLKWSEGPPTNLSIQCYMPKSPVAPK
B1: the binding result in “crystal structure [1]” was “binds”.

B2: mMBP-VR3 (mammalianized maltose-binding protein fusion of VERL repeat 3) (domain or fragment)
chain: DWDVYCSQDESIPAKFISRLVTSKDQALEKTEINCSNGLVPITQEFGINMMLIQYTRNELLDSPGMCVFWGPYSVPKNDTVVLYTVTARLKWSEGPPTNLSIQCYMPKSPVAPK
Consider B2, for which the binding result in “crystal structure [2]” is on record as “binds”.
